{
  "source": "patent US20150104448A1",
  "about": "(TRUE NORTH THERAPEUTICS, published 2015)",
  "key": {"Inactive-C1s": {"molecular_target": "T1, Inactive-C1s (Homo sapiens, UniProt P09871)", "T1 construct": "proenzyme (pro-C1s); also called pro-C1s", "T1 sequence (single chain, looked up)": "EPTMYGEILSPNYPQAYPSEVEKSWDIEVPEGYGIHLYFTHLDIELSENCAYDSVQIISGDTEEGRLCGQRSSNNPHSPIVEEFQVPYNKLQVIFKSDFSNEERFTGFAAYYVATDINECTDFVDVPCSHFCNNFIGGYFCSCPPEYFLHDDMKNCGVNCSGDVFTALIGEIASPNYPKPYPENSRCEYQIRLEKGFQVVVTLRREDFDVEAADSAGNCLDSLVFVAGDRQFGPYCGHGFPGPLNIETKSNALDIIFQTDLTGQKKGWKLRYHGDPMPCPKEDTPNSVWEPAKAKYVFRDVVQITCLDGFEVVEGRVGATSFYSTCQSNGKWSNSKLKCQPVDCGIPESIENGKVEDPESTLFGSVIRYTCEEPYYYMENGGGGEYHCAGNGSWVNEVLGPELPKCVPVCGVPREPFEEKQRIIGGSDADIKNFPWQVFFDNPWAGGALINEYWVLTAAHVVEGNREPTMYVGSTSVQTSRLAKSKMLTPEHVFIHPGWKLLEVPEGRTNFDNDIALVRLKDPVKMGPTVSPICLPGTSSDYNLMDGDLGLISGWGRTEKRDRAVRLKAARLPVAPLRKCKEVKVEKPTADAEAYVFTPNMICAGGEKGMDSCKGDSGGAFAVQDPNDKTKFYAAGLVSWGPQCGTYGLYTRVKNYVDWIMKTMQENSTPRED", "experiment": "kinetic binding measurement, method not stated; Table 10, pro-C1s"}, "[1]": {"molecular_target": "T2, purified human activated C1s protein, two-chain form (Homo sapiens, UniProt P09871 16-688)", "T2 construct": "Also used here for C1s acting in human serum assays; also called human C1s; active C1s", "T2 sequence": "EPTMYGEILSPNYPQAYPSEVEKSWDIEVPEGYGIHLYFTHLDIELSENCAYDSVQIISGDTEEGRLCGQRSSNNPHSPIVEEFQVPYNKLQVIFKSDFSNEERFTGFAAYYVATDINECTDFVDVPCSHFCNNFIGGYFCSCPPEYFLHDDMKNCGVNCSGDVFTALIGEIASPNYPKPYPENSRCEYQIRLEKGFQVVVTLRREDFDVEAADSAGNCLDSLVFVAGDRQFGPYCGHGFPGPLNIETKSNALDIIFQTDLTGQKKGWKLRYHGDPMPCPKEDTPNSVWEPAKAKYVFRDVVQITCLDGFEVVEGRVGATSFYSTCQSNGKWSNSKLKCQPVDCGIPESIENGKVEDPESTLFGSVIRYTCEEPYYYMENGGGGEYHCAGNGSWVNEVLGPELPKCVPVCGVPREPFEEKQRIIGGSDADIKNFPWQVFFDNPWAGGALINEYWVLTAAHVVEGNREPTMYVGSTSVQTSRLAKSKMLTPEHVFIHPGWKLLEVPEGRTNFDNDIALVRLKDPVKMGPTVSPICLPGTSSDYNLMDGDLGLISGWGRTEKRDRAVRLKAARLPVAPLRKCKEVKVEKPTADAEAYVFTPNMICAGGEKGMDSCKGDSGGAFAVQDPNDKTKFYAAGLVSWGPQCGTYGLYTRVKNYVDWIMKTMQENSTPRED", "experiment": "kinetic binding measurement, method not stated; Table 9, activated C1s"}},
  "data": [
    {"binder": "VH1/Vk2 (antibody, V domains shown, member of group m7; also called VH1/Vκ2; VH variant 1 + Vk variant 2) VH: EVMLVESGGGLVKPGGSLRLSCAASGFTFSNYAMSWVRQAPGKGLEWVATISSGGSHTYYLDSVKGRFTISRDNSKDTLYLQMSSLRAEDTALYYCARLFTGYAMDYWGQGTSVTVSS VL: QIVLTQSPATLSLSPGERATMSCTASSSVSSSYLHWYQQKPGKAPKLWIYSTSNLASGVPSRFSGSGSGTDYTLTISSLQPEDFATYYCHQYYRLPPITFGQGTKLEIK", "values": [
      {"measurement": "Kd", "setting": "Inactive-C1s", "result": 0.229, "unit": "nM"},
      {"measurement": "koff", "setting": "Inactive-C1s", "result": 0.000249, "unit": "s⁻¹"},
      {"measurement": "kon", "setting": "Inactive-C1s", "result": "1.09e+06", "unit": "M⁻¹ s⁻¹"},
      {"measurement": "Kd", "setting": "[1]", "result": 0.262, "unit": "nM"},
      {"measurement": "koff", "setting": "[1]", "result": 0.000274, "unit": "s⁻¹"},
      {"measurement": "kon", "setting": "[1]", "result": "1.05e+06", "unit": "M⁻¹ s⁻¹"}
    ]},
    {"binder": "VH3/Vk1 (antibody, V domains shown, member of group m7; also called VH3/Vκ1; VH variant 3 + Vk variant 1) VH: EVMLVESGGGLVKPGGSLRLSCAASGFTFSNYAMSWVRQAPGKGLEWVATISSGGSHTYYLDSVKGRFTISRDNSKDTLYLQMSSLRAEDTALYYCARLFTGYAMDYWGQGTSVTVSS VL: QIVLTQSPAILSLSPGERATMSCTASSSVSSSYLHWYQQKPGKAPKLWIYSTSNLASGVPSRFSGSGSGTFYTLTISSLQAEDFATYYCHQYYRLPPITFGQGTKLEIK", "values": [
      {"measurement": "Kd", "setting": "Inactive-C1s", "result": 0.252, "unit": "nM"},
      {"measurement": "koff", "setting": "Inactive-C1s", "result": 0.000255, "unit": "s⁻¹"},
      {"measurement": "kon", "setting": "Inactive-C1s", "result": "1.02e+06", "unit": "M⁻¹ s⁻¹"},
      {"measurement": "Kd", "setting": "[1]", "result": 0.246, "unit": "nM"},
      {"measurement": "koff", "setting": "[1]", "result": 0.000254, "unit": "s⁻¹"},
      {"measurement": "kon", "setting": "[1]", "result": "1.03e+06", "unit": "M⁻¹ s⁻¹"}
    ]},
    {"binder": "VH1/Vk1 (antibody, V domains shown, member of group m7; also called VH1/Vκ1; VH variant 1 + Vk variant 1) VH: EVMLVESGGGLVKPGGSLRLSCAASGFTFSNYAMSWVRQAPGKGLEWVATISSGGSHTYYLDSVKGRFTISRDNSKDTLYLQMSSLRAEDTALYYCARLFTGYAMDYWGQGTSVTVSS VL: QIVLTQSPAILSLSPGERATMSCTASSSVSSSYLHWYQQKPGKAPKLWIYSTSNLASGVPSRFSGSGSGTFYTLTISSLQAEDFATYYCHQYYRLPPITFGQGTKLEIK", "values": [
      {"measurement": "Kd", "setting": "Inactive-C1s", "result": 0.191, "unit": "nM"},
      {"measurement": "koff", "setting": "Inactive-C1s", "result": 0.000198, "unit": "s⁻¹"},
      {"measurement": "kon", "setting": "Inactive-C1s", "result": "1.04e+06", "unit": "M⁻¹ s⁻¹"},
      {"measurement": "Kd", "setting": "[1]", "result": 0.235, "unit": "nM"},
      {"measurement": "koff", "setting": "[1]", "result": 0.000228, "unit": "s⁻¹"},
      {"measurement": "kon", "setting": "[1]", "result": 973000, "unit": "M⁻¹ s⁻¹"}
    ]},
    {"binder": "VH2/Vk1 (antibody, V domains shown, member of group m7; also called VH2/Vκ1; VH variant 2 + Vk variant 1) VH: EVMLVESGGGLVKPGGSLRLSCAASGFTFSNYAMSWVRQAPGKGLEWVATISSGGSHTYYLDSVKGRFTISRDNSKDTLYLQMNSLRAEDTALYYCARLFTGYAMDYWGQGTLVTVSS VL: QIVLTQSPAILSLSPGERATMSCTASSSVSSSYLHWYQQKPGKAPKLWIYSTSNLASGVPSRFSGSGSGTFYTLTISSLQAEDFATYYCHQYYRLPPITFGQGTKLEIK", "values": [
      {"measurement": "Kd", "setting": "Inactive-C1s", "result": 0.252, "unit": "nM"},
      {"measurement": "koff", "setting": "Inactive-C1s", "result": 0.000262, "unit": "s⁻¹"},
      {"measurement": "kon", "setting": "Inactive-C1s", "result": "1.04e+06", "unit": "M⁻¹ s⁻¹"},
      {"measurement": "Kd", "setting": "[1]", "result": 0.256, "unit": "nM"},
      {"measurement": "koff", "setting": "[1]", "result": 0.000274, "unit": "s⁻¹"},
      {"measurement": "kon", "setting": "[1]", "result": "1.07e+06", "unit": "M⁻¹ s⁻¹"}
    ]},
    {"binder": "VH2/Vk3 (antibody, V domains shown, member of group m7; also called VH2/Vκ3; VH variant 2 + Vk variant 3) VH: EVMLVESGGGLVKPGGSLRLSCAASGFTFSNYAMSWVRQAPGKGLEWVATISSGGSHTYYLDSVKGRFTISRDNSKDTLYLQMNSLRAEDTALYYCARLFTGYAMDYWGQGTLVTVSS VL: QIVLTQSPATLSLSPGERATLSCTASSSVSSSYLHWYQQKPGKAPKLWIYSTSNLASGVPSRFSGSGSGTDYTLTISSLQPEDFATYYCHQYYRLPPITFGQGTKLEIK", "values": [
      {"measurement": "Kd", "setting": "Inactive-C1s", "result": 0.284, "unit": "nM"},
      {"measurement": "koff", "setting": "Inactive-C1s", "result": 0.000275, "unit": "s⁻¹"},
      {"measurement": "kon", "setting": "Inactive-C1s", "result": 968000, "unit": "M⁻¹ s⁻¹"},
      {"measurement": "Kd", "setting": "[1]", "result": 0.296, "unit": "nM"},
      {"measurement": "koff", "setting": "[1]", "result": 0.000281, "unit": "s⁻¹"},
      {"measurement": "kon", "setting": "[1]", "result": 948000, "unit": "M⁻¹ s⁻¹"}
    ]},
    {"binder": "VH2/Vk2 (antibody, V domains shown, member of group m7; also called VH2/Vκ2; VH variant 2 + Vk variant 2) VH: EVMLVESGGGLVKPGGSLRLSCAASGFTFSNYAMSWVRQAPGKGLEWVATISSGGSHTYYLDSVKGRFTISRDNSKDTLYLQMNSLRAEDTALYYCARLFTGYAMDYWGQGTLVTVSS VL: QIVLTQSPATLSLSPGERATMSCTASSSVSSSYLHWYQQKPGKAPKLWIYSTSNLASGVPSRFSGSGSGTDYTLTISSLQPEDFATYYCHQYYRLPPITFGQGTKLEIK", "values": [
      {"measurement": "Kd", "setting": "Inactive-C1s", "result": 0.271, "unit": "nM"},
      {"measurement": "koff", "setting": "Inactive-C1s", "result": 0.000269, "unit": "s⁻¹"},
      {"measurement": "kon", "setting": "Inactive-C1s", "result": 993000, "unit": "M⁻¹ s⁻¹"},
      {"measurement": "Kd", "setting": "[1]", "result": 0.273, "unit": "nM"},
      {"measurement": "koff", "setting": "[1]", "result": 0.00028, "unit": "s⁻¹"},
      {"measurement": "kon", "setting": "[1]", "result": "1.03e+06", "unit": "M⁻¹ s⁻¹"}
    ]},
    {"binder": "VH1/Vk3 (antibody, V domains shown, member of group m7; also called VH1/Vκ3; VH variant 1 + Vk variant 3) VH: EVMLVESGGGLVKPGGSLRLSCAASGFTFSNYAMSWVRQAPGKGLEWVATISSGGSHTYYLDSVKGRFTISRDNSKDTLYLQMSSLRAEDTALYYCARLFTGYAMDYWGQGTSVTVSS VL: QIVLTQSPATLSLSPGERATLSCTASSSVSSSYLHWYQQKPGKAPKLWIYSTSNLASGVPSRFSGSGSGTDYTLTISSLQPEDFATYYCHQYYRLPPITFGQGTKLEIK", "values": [
      {"measurement": "Kd", "setting": "Inactive-C1s", "result": 0.303, "unit": "nM"},
      {"measurement": "koff", "setting": "Inactive-C1s", "result": 0.000285, "unit": "s⁻¹"},
      {"measurement": "kon", "setting": "Inactive-C1s", "result": 941000, "unit": "M⁻¹ s⁻¹"},
      {"measurement": "Kd", "setting": "[1]", "result": 0.376, "unit": "nM"},
      {"measurement": "koff", "setting": "[1]", "result": 0.000343, "unit": "s⁻¹"},
      {"measurement": "kon", "setting": "[1]", "result": 914000, "unit": "M⁻¹ s⁻¹"}
    ]}
  ]
}
